Assay: Tissue distribution of radioactivity by LSC following combustion, albino rats
Assay type: in vivo, male Sprague-Dawley (albino) rats
Conditions: mean ± SD, n=3
Description: Total captured radioactivity was subsequently measured via LSC.
Male Sprague-Dawley (albino) rats (n = 21; three per time point) were administered a single IV dose of 5 mg·kg^−1 [^14C]-peginesatide (27.5 μCi/kg) and tissue concentrations of radioactivity determined at 0.25, 6, and 24 h, and 7,14,30 and 60 days following dosing. Similarly, male Long Evans (pigmented) rats (n = 21; three per time point) were administered a single IV dose of 5 mg-kg^−1 [^14C]-peginesatide and plasma, skin, and eye concentrations of radioactivity were measured at the various time points through 60 days after dosing. At each time point, blood was collected, the animals sacrificed, and tissues excised. Tissues collected from the Sprague-Dawley rats included blood, plasma, adrenals, bone marrow, brain, eyes, fat, femur, Harderian glands, heart, hypophysis, intestine, kidneys, lungs, liver, pancreas, skeletal muscle, skin, spinal cord, spleen, stomach, submaxillary glands, testes, thymus, thyroid gland, and urinary bladder. Plasma, eyes, non-pigmented skin, and pigmented skin were collected from Long Evans rats. All tissue samples were measured for radioactivity by LSC following combustion. The liver and intestine were first homogenized in distilled water (20% w/v) prior to analysis. The concentration of radioactivity in the blood, plasma, and tissues was calculated and expressed as ug equiv·g^-1 or mLbased on the LSC counts and the specific activity of the dosing solution.

[1] = 7 Days after single IV 5 mg·kg^−1, LSC
[2] = 14 Days after single IV 5 mg·kg^−1, LSC
[3] = 30 Days after single IV 5 mg·kg^−1, LSC
[4] = 60 Days after single IV 5 mg·kg^−1, LSC

Substance: Peginesatide
- Concentration of the radioactivity, Adrenals [1]: 10.2 ± 1.31 μg equiv·g^−1 or mL
- Concentration of the radioactivity, Blood [1]: 3.87 ± 0.291 μg equiv·g^−1 or mL
- Concentration of the radioactivity, Bone (femur) [1]: 0.788 ± 0.374 μg equiv·g^−1 or mL
- Concentration of the radioactivity, Bone marrow [1]: 8.87 ± 0.641 μg equiv·g^−1 or mL
- Concentration of the radioactivity, Brain [1]: 0.200 ± 0.021 μg equiv·g^−1 or mL
- Concentration of the radioactivity, Eyes [1]: 0.885 ± 0.111 μg equiv·g^−1 or mL
- Concentration of the radioactivity, Fat [1]: 2.11 ± 0.693 μg equiv·g^−1 or mL
- Concentration of the radioactivity, Harderian glands [1]: 4.41 ± 0.100 μg equiv·g^−1 or mL
- Concentration of the radioactivity, Heart [1]: 4.01 ± 0.344 μg equiv·g^−1 or mL
- Concentration of the radioactivity, Intestine [1]: 3.05 ± 0.259 μg equiv·g^−1 or mL
- Concentration of the radioactivity, Kidneys [1]: 5.68 ± 0.386 μg equiv·g^−1 or mL
- Concentration of the radioactivity, Liver [1]: 12.5 ± 0.727 μg equiv·g^−1 or mL
- Concentration of the radioactivity, Lungs [1]: 4.26 ± 0.285 μg equiv·g^−1 or mL
- Concentration of the radioactivity, Pancreas [1]: 9.74 ± 0.231 μg equiv·g^−1 or mL
- Concentration of the radioactivity, Pituitary [1]: 8.31 ± 0.594 μg equiv·g^−1 or mL
- Concentration of the radioactivity, Plasma [1]: 7.80 ± 0.541 μg equiv·g^−1 or mL
- Concentration of the radioactivity, Skeletal muscle [1]: 0.563 ± 0.119 μg equiv·g^−1 or mL
- Concentration of the radioactivity, Skin [1]: 3.06 ± 0.055 μg equiv·g^−1 or mL
- Concentration of the radioactivity, Spinal cord [1]: 0.129 ± 0.067 μg equiv·g^−1 or mL
- Concentration of the radioactivity, Spleen [1]: 11.5 ± 0.204 μg equiv·g^−1 or mL
- Concentration of the radioactivity, Stomach [1]: 2.36 ± 0.262 μg equiv·g^−1 or mL
- Concentration of the radioactivity, Submandibular lymph nodes [1]: 10.6 ± 0.553 μg equiv·g^−1 or mL
- Concentration of the radioactivity, Testes [1]: 4.98 ± 0.222 μg equiv·g^−1 or mL
- Concentration of the radioactivity, Thymus [1]: 3.39 ± 0.560 μg equiv·g^−1 or mL
- Concentration of the radioactivity, Thyroid gland [1]: 17.0 ± 5.26 μg equiv·g^−1 or mL
- Concentration of the radioactivity, Urinary bladder [1]: 4.52 ± 1.01 μg equiv·g^−1 or mL
- Concentration of the radioactivity, Adrenals [2]: 9.15 ± 2.39 μg equiv·g^−1 or mL
- Concentration of the radioactivity, Blood [2]: 1.03 ± 0.229 μg equiv·g^−1 or mL
- Concentration of the radioactivity, Bone (femur) [2]: 0.388 ± 0.054 μg equiv·g^−1 or mL
- Concentration of the radioactivity, Bone marrow [2]: 6.33 ± 0.683 μg equiv·g^−1 or mL
- Concentration of the radioactivity, Brain [2]: 0.102 ± 0.014 μg equiv·g^−1 or mL
- Concentration of the radioactivity, Eyes [2]: 0.765 ± 0.022 μg equiv·g^−1 or mL
- Concentration of the radioactivity, Fat [2]: 1.14 ± 0.475 μg equiv·g^−1 or mL
- Concentration of the radioactivity, Harderian glands [2]: 5.21 ± 0.433 μg equiv·g^−1 or mL
- Concentration of the radioactivity, Heart [2]: 2.73 ± 0.254 μg equiv·g^−1 or mL
- Concentration of the radioactivity, Intestine [2]: 1.78 ± 0.297 μg equiv·g^−1 or mL
- Concentration of the radioactivity, Kidneys [2]: 4.49 ± 1.02 μg equiv·g^−1 or mL
- Concentration of the radioactivity, Liver [2]: 8.53 ± 0.754 μg equiv·g^−1 or mL
- Concentration of the radioactivity, Lungs [2]: 3.38 ± 0.703 μg equiv·g^−1 or mL
- Concentration of the radioactivity, Pancreas [2]: 9.10 ± 0.629 μg equiv·g^−1 or mL
- Concentration of the radioactivity, Pituitary [2]: 6.25 ± 1.17 μg equiv·g^−1 or mL
- Concentration of the radioactivity, Plasma [2]: 2.00 ± 0.605 μg equiv·g^−1 or mL
- Concentration of the radioactivity, Skeletal muscle [2]: 0.379 ± 0.108 μg equiv·g^−1 or mL
- Concentration of the radioactivity, Skin [2]: 1.70 ± 0.109 μg equiv·g^−1 or mL
- Concentration of the radioactivity, Spinal cord [2]: 0.069 ± 0.030 μg equiv·g^−1 or mL
- Concentration of the radioactivity, Spleen [2]: 23.6 ± 2.82 μg equiv·g^−1 or mL
- Concentration of the radioactivity, Stomach [2]: 2.00 ± 0.118 μg equiv·g^−1 or mL
- Concentration of the radioactivity, Submandibular lymph nodes [2]: 10.9 ± 1.32 μg equiv·g^−1 or mL
- Concentration of the radioactivity, Testes [2]: 5.19 ± 0.448 μg equiv·g^−1 or mL
- Concentration of the radioactivity, Thymus [2]: 1.81 ± 0.249 μg equiv·g^−1 or mL
- Concentration of the radioactivity, Thyroid gland [2]: 13.2 ± 3.52 μg equiv·g^−1 or mL
- Concentration of the radioactivity, Urinary bladder [2]: 2.30 ± 0.326 μg equiv·g^−1 or mL
- Concentration of the radioactivity, Adrenals [3]: 7.90 ± 1.57 μg equiv·g^−1 or mL
- Concentration of the radioactivity, Blood [3]: 0.466 ± 0.054 μg equiv·g^−1 or mL
- Concentration of the radioactivity, Bone (femur) [3]: 0.278 ± 0.057 μg equiv·g^−1 or mL
- Concentration of the radioactivity, Bone marrow [3]: 4.12 ± 1.37 μg equiv·g^−1 or mL
- Concentration of the radioactivity, Brain [3]: 0.080 ± 0.010 μg equiv·g^−1 or mL
- Concentration of the radioactivity, Eyes [3]: 0.511 ± 0.147 μg equiv·g^−1 or mL
- Concentration of the radioactivity, Fat [3]: 0.582 ± 0.070 μg equiv·g^−1 or mL
- Concentration of the radioactivity, Harderian glands [3]: 3.88 ± 0.907 μg equiv·g^−1 or mL
- Concentration of the radioactivity, Heart [3]: 1.57 ± 0.244 μg equiv·g^−1 or mL
- Concentration of the radioactivity, Intestine [3]: 1.40 ± 0.183 μg equiv·g^−1 or mL
- Concentration of the radioactivity, Kidneys [3]: 3.03 ± 0.429 μg equiv·g^−1 or mL
- Concentration of the radioactivity, Liver [3]: 3.45 ± 0.808 μg equiv·g^−1 or mL
- Concentration of the radioactivity, Lungs [3]: 1.78 ± 0.237 μg equiv·g^−1 or mL
- Concentration of the radioactivity, Pancreas [3]: 6.67 ± 1.70 μg equiv·g^−1 or mL
- Concentration of the radioactivity, Pituitary [3]: 7.24 ± 0.292 μg equiv·g^−1 or mL
- Concentration of the radioactivity, Plasma [3]: 0.780 ± 0.099 μg equiv·g^−1 or mL
- Concentration of the radioactivity, Skeletal muscle [3]: 0.152 ± 0.012 μg equiv·g^−1 or mL
- Concentration of the radioactivity, Skin [3]: 0.889 ± 0.228 μg equiv·g^−1 or mL
- Concentration of the radioactivity, Spinal cord [3]: 0.033 ± 0.016 μg equiv·g^−1 or mL
- Concentration of the radioactivity, Spleen [3]: 17.7 ± 4.96 μg equiv·g^−1 or mL
- Concentration of the radioactivity, Stomach [3]: 1.28 ± 0.106 μg equiv·g^−1 or mL
- Concentration of the radioactivity, Submandibular lymph nodes [3]: 7.86 ± 1.19 μg equiv·g^−1 or mL
- Concentration of the radioactivity, Testes [3]: 4.33 ± 1.00 μg equiv·g^−1 or mL
- Concentration of the radioactivity, Thymus [3]: 1.14 ± 0.138 μg equiv·g^−1 or mL
- Concentration of the radioactivity, Thyroid gland [3]: 13.9 ± 3.33 μg equiv·g^−1 or mL
- Concentration of the radioactivity, Urinary bladder [3]: 1.77 ± 0.889 μg equiv·g^−1 or mL
- Concentration of the radioactivity, Adrenals [4]: 5.32 ± 0.996 μg equiv·g^−1 or mL
- Concentration of the radioactivity, Blood [4]: 0.170 ± 0.036 μg equiv·g^−1 or mL
- Concentration of the radioactivity, Bone (femur) [4]: 0.046 ± 0.001 μg equiv·g^−1 or mL
- Concentration of the radioactivity, Bone marrow [4]: 0.361 ± 0.142 μg equiv·g^−1 or mL
- Concentration of the radioactivity, Brain [4]: 0.057 ± 0.006 μg equiv·g^−1 or mL
- Concentration of the radioactivity, Eyes [4]: 0.299 ± 0.076 μg equiv·g^−1 or mL
- Concentration of the radioactivity, Fat [4]: 0.456 ± 0.135 μg equiv·g^−1 or mL
- Concentration of the radioactivity, Harderian glands [4]: 2.75 ± 0.281 μg equiv·g^−1 or mL
- Concentration of the radioactivity, Heart [4]: 1.14 ± 0.205 μg equiv·g^−1 or mL
- Concentration of the radioactivity, Intestine [4]: 0.624 ± 0.033 μg equiv·g^−1 or mL
- Concentration of the radioactivity, Kidneys [4]: 2.11 ± 0.574 μg equiv·g^−1 or mL
- Concentration of the radioactivity, Liver [4]: 1.17 ± 0.199 μg equiv·g^−1 or mL
- Concentration of the radioactivity, Lungs [4]: 1.05 ± 0.238 μg equiv·g^−1 or mL
- Concentration of the radioactivity, Pancreas [4]: 5.92 ± 0.436 μg equiv·g^−1 or mL
